This is an account of results in US20260242735A1 (UNIVERSIT T BASEL, published 2026).

For test [1], the target named is T1, human wild-type CD33 (human, UniProt P20138 18-364).
T1 construct: also called SIGLEC3; P67
The experiment in a line: flow cytometry, IgG at 0.25 ug/ml on HEK293-T cells expressing CD33 against vector alone. (Flow cytometry measures light scatter and fluorescence of single cells or particles in a stream.)
Method: (§1) Binding of the antibodies to the transfected cells and the optimal assay conditions were evaluated in 384-well format. Detection of cellular expression was measured via high-throughput flow cytometry. Serial dilutions of each antibody were tested for immunoreactivity against cells expressing CD33 or vector alone. The optimal screening concentration for each antibody was determined based on the raw signal values and signal-to-background calculations. Each point represents the mean of four replicates.

Test [2] deals with T1, human wild-type CD33. The experiment in a line: flow cytometry, Fab at 0.25 ug/ml on HEK293-T cells expressing CD33 against vector alone.
Method: (§2) Serial dilutions of each Fab were tested for immunoreactivity against cells expressing wild-type CD33 or vector alone. The optimal screening concentration for the Fabs was determined based on the raw signal values and signal-to-background calculations. Each point represents the mean of four replicates.
Test [3] has as its target T1, human wild-type CD33. In words: flow cytometry, IgG at 0.50 ug/ml on HEK293-T cells expressing CD33 against vector alone.
Method: as §1
For test [4], the target named is T1, human wild-type CD33. In words: flow cytometry, Fab at 0.25 ug/ml on HEK293-T cells expressing CD33 against vector alone. This is another data set of the same source.
Method: as §2

T1 sequence (P20138 18-364 limits assumed): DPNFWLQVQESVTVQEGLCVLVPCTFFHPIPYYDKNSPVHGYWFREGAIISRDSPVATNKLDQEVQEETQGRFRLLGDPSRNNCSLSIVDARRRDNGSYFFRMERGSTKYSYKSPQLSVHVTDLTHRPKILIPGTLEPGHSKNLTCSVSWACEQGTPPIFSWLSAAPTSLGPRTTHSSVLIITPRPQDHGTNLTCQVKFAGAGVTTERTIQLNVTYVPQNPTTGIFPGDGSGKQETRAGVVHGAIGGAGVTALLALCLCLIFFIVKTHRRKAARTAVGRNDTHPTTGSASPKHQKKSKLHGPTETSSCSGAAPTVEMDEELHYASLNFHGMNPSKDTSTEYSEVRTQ

B1: Refmab #5 (antibody, human IgG1, V domains shown)
VH: QVQLVQSGAEVKKPGASVKVSCKASGYTFTNYDINWVRQAPGQGLEWIGWIYPGDGSTKYNEKFKAKATLTADTSTSTAYMELRSLRSDDTAVYYCASGYEDAMDYWGQGTTVTVSS
VL: DIQMTQSPSSLSASVGDRVTINCKASQDINSYLSWFQQKPGKAPKTLIYRANRLVDGVPSRFSGSGSGQDYTLTISSLQPEDFATYYCLQYDEFPLTFGGGTKVEIK
notes: Full-length MAb format, human IgG1 Fc silent (PG-LALA)
As for B1, the “Signal:Background” value in test [1] is 37 signal:background ratio.

B2: Refmab #1 Fab fragment (Fab, V domains shown)
VH: EVQLVQSGAEVKKPGSSVKVSCKASGYTITDSNIHWVRQAPGQSLEWIGYIYPYNGGTDYNQKFKNRATLTVDNPTNTAYMELSSLRSEDTAFYYCVNGNPWLAYWGQGTLVTVSS
VL: DIQLTQSPSTLSASVGDRVTITCRASESLDNYGIRFLTWFQQKPGKAPKLLMYAASNQGSGVPSRFSGSGSGTEFTLTISSLQPDDFATYYCQQTKEVPWSFGQGTKVEVK
For the molecule B2, in test [2], the “Signal:Background” value was 33 signal:background ratio.

B3: Refmab #6 (antibody, human IgG1, V domains shown)
VH: QVQLQQPGAEVVKPGASVKMSCKASGYTFTSYYIHWIKQTPGQGLEWVGVIYPGNDDISYNQKFQGKATLTADKSSTTAYMQLSSLTSEDSAVYYCAREVRLRYFDVWGQGTTVTVSS
VL: EIVLTQSPGSLAVSPGERVTMSCKSSQSVFFSSSQKNYLAWYQQIPGQSPRLLIYWASTRESGVPDRFTGSGSGTDFTLTISSVQPEDLAIYYCHQYLSSRTFGQGTKLEIK
notes: as for B1
As for B3, in test [3], the “Signal:Background” value is 57 signal:background ratio.

B4: Refmab #6 Fab fragment (Fab, V domains shown)
VH: B3 VH
VL: B3 VL
With B4, the “Signal:Background” value in test [4] is 51 signal:background ratio.
